Source: publication PMC5647421, “Hetero-oligomer of dynamin-related proteins participates in the fission of highly divergent mitochondria from Entamoeba histolytica” (Scientific Reports, 2017)
Where “and” joins values, the source holds several entries; their conditions need not be identical. Equal entries are not always repeated.

Biological target: T1, EhDrpA (endogenous) (Entamoeba histolytica (endogenous in …, UniProt C4LX84 1-682))
T1 construct: Entamoeba histolytica dynamin-related protein A (EhDrpA, earlier named EhDlp1), XP_649650; also called endogenous EhDrpA; native EhDrpA; source: endogenous, E. histolytica trophozoite whole cell lysate
T1 sequence (looked up): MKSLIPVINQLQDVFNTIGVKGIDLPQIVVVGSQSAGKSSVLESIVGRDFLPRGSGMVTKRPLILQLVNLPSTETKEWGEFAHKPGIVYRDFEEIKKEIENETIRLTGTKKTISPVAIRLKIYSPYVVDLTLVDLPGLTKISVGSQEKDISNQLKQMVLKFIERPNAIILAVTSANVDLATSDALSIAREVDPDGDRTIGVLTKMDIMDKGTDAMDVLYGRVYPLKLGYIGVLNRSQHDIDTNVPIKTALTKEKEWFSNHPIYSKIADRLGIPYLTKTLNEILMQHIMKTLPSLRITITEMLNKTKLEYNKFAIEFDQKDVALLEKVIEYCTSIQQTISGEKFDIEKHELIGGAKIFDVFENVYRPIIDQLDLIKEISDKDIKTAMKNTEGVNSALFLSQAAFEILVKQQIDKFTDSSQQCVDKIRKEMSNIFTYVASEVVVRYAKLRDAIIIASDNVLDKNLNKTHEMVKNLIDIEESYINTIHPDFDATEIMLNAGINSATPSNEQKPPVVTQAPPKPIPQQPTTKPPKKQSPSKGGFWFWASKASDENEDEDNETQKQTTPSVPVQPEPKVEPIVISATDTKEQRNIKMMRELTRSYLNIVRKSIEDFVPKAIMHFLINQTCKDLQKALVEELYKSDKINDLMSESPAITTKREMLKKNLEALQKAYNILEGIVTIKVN
Test: co-IP; trophozoites of E. histolytica HM-1:IMSS cl6 wild type; immunoprecipitation by anti-DrpA or anti-DrpB antibodies; quantitative immunoblot with recombinant His6-EhDRP-HA proteins as standards
Conditions: partners not purified

B1: EhDrpB (endogenous) (natural protein, UniProt C4M3R5 1-663, looked up)
chain: MQRLIPVINSLQDVFTAAGLPNTLPLPQIVVVGSQSSGKSSVLEHVVGKDFLPRGSGIVTRRPLIVQCVRSNVAEDYGQFEHTGDRKFTDFGEIRNEITRETERTCPGRNVSSVPIRLRIYSSSVVDLTLVDLPGLVKVNINGQTAEMVKNLRDMVYEYASPSNALILAVTAGNIDIANSDALQVAKDVDPDGERTIGVLTKLDLEDKGTNSMDVLMGRVYPLKLGYIGVVNRSQQDINNGVDVKTSLRHEKEFFENHPVYCSIAERMGTEYMVNRLNVLLLQHIQKCLPGLKQQINQCYEKARSRYEDIKPDDENLLSLSLQQIMKFSGSFAAALNGTDTNIHTHEISGGAKIFSVFENNFRPTIDSQDILSGIKDVDILTAIKNASGTRPCLYVPQSAFENLISKQVRNFEGTCHNCVDNVYREMKVIVGKIAKDNIEKYDRFREALIQASTEVMNDYMTQTHKMVQDLIDIEADYINTSHPDFDTTKVLKEADEAMKTPQDGIDTIVTIDPNNTTNAQQYEAKKPVKSSFFAGQINKNQAKPQQQHVPKESITTSIRVDHTNQREMREINLIRNLCKDYLLIVRKSIKDLVPKAVIHFLVFKTRDSLQKELIKKLYNEALLQDLLAENPAIVNERKVVKQNLEALKKALDIINQVRDQCF
notes: Entamoeba histolytica dynamin-related protein B (EhDrpB), XP_651634; also called endogenous EhDrpB; native EhDrpB; source: endogenous, E. histolytica trophozoite whole cell lysate
stoichiometry N: 2 EhDrpB per EhDrpA and 3 EhDrpB per EhDrpA
